In assay [1] the target is PcrG (residues 1-98) (P. aeruginosa strain CHA). The assay can be described thus: native MS.
The target is the same in assay [2]. The assay can be described thus: SPR.
Assay [3] addresses PcrG (1-74) (P. aeruginosa strain CHA). The assay can be described thus: SPR.

As for “PcrV (from UniProt G3XD49 1-294) (natural protein)”, the stoichiometry N in assay [1] came out at 1. In assay [2], this substance displayed a Kd of 15.6 nM, a koff of 0.00694 s⁻¹ and a kon of 445000 M⁻¹ s⁻¹. In assay [3], this substance displayed a Kd of 15.6 nM, a koff of 0.00491 s⁻¹ and a kon of 316000 M⁻¹ s⁻¹.

These data come from publication PMC270082.
